Results taken from paper PMC4792071 (The Journal of Cell Biology, 2016).

T1: Arl2^T30N-Venus (Drosophila melanogaster, UniProt Q06849 1-184, T30N)
T1 sequence (looked up): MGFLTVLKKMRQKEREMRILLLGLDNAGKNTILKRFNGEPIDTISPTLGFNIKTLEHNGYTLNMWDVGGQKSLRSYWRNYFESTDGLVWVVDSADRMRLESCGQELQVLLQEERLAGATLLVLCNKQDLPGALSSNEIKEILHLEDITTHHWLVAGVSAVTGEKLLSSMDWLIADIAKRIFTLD

T2: Arl2^Q70L-Venus (Drosophila melanogaster, UniProt Q06849 1-184, Q70L)
T2 sequence (looked up): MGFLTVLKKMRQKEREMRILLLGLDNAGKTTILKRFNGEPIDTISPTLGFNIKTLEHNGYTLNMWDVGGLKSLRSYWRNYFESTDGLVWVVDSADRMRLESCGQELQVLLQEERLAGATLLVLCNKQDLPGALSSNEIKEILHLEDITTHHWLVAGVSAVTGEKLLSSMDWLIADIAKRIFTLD


How the values were obtained:
Arl2^T30N-Venus = target: T1, Arl2^T30N-Venus; assay: co-IP
Arl2^Q70L-Venus = target: T2, Arl2^Q70L-Venus; assay: co-IP

Binder | fold amount co-precipitated, against Arl2^Q70L-Venus (Arl2^T30N-Venus) [fold] | fold amount co-precipitated, against Arl2^T30N-Venus (Arl2^Q70L-Venus) [fold]
HA-TBCE (natural protein, Drosophila melanogaster, UniProt A1Z6J5 1-523, looked up) MVGIIDEVQLFYPLGTRIKIGDNYGTVRYVGEVSGHMGSWLGIEWDDGLRGKHNGIVDGKRYFQTQTPTGGSFIRPGKVGPCATLEDAARERYLNYDSSNVDESLIREAQASLQASLFEVVGMDKIARKQSKFEQLEEVSVDQTPVNAAGYLKELTHLTTLNVSHTLIWNWEIVASIAQQLPSLTNLNLSSNRLVLPTSSQITELEPSFRQLKRINLRSCGFSDWKDVMHTALLWPNILSLGLQENSLGQLAEVDRTKIFKQLHELDLHRTNIMDFDQVTKLGNLTTLRLLNIMENGIEEIKLPDCDSQEKLNIFVSLEQLNLLHNPIWNEADAFNELDKLPQLKRLSKTPHLKSNFDEMFSKAVASIASLQFINKAEVTAEQRRGAEYDIWKKYALDWMQATQGGTDSLREFCRRHRTYPLLVKKYGSPADFVPRSQAKQSNLINVSIRHQLTGETWEKKVPRMITVQTLQGLVMKRFRLSGDVPQLCYVDALHPDLVVPLDNNAKTLDFYSVQEHDTVLVQ | ~3.1 | –
HA-TBCC (natural protein, Drosophila melanogaster, UniProt Q7KU40 1-355, looked up) MEGDAENRKDQILERLNKRNKDRQNYLDVKSELRSKETVQNEGVDYFYQTFSQKTMDIEQRLKDVQCGDGQPTDLARNFADITVEIQDLQRYLTASTMFLPDFKIKSCQNILNTLTAVSDETRQRLLPKKKFGFSGKKTVTKPKVPPNKDIVDAKLSKVPEKLGSNFTWTIANRTNEHIVLDSAKVNGQDITISKLNHCLVELQGHPGSVQVSRASKCTLLCGPIARSFFAENLEDCTLSIACQQLRLHSSRSIRIYMHVTCRAIIEDCKSIEIGEYNYDYSKLEADYLASGLNKAQNNYTDVADFNWLSPDVPSPNWSLLKDYPDPNWNALRRDFIANNHNSELKQDVKDISII | – | ~9.6
